Five molecules from patent US20030092609A1 can be followed below.

The target of experiment [1] is AAP receptors in CHO cells. In words: cell-based or functional assay.
The target in experiment [2] is [125I]AAP10 binding site in murine heart tissue preparations. In words: displacement of 0.8 nM [125I]AAP10 from murine heart membranes.
The target of experiment [3] is AAP receptors in CHO cells. As to the kind of experiment: in situ displacement of [125I]AAP10 on intact CHO cells. A general note: Loss of bound radioactivity is the signal in a displacement assay; it reports binding, not function.
For experiment [4], the target named is [125I]AAP10 binding site in murine heart tissue preparations. As to the kind of experiment: displacement of 0.8 nM [125I]AAP10 from murine heart filtrate.

[ ]: non-standard residue; d: D form. Hyp = O=C(O)[C@@H]1C[C@@H](O)CN1

Broadly, the IC50 is the concentration that inhibits the measured activity by half. On to “Ac-D-Tyr-D-Pro-D-4Hyp-Gly-D-Ala-Gly-NH2 (Compound 2) (peptide)”, for which the Inhibition of forskoline stimulated cAMP formation in CHO cells, EC50 in experiment [1] came out at 6.2 nM. The figures for the 50% inhibitory concentration (IC50) in experiment [2], in experiment [3] and in experiment [4] were 1.2 nM, 0.5 nM and 3.6 nM, respectively.

In experiment [3], “Ac-D-Tyr(3,5-di-I)-D-Pro-D-Hyp-Gly-D-Ala-Gly-NH2 (Compound 24) (peptide)” had a 50% inhibitory concentration (IC50) of 65 nM.

In the case of H-GAG[Hyp]PY-NH2 [H-Gly-Ala-Gly-Hyp-Pro-Tyr-NH2 (AAP10)], the Inhibition of forskoline stimulated cAMP formation in CHO cells, EC50 in experiment [1] stood at 11 nM. Moreover, the IC50 in experiment [3] is 130 nM; in experiment [4], 1.2 nM.

On to {ASAL(3-I)}-P[Hyp]GAG-NH2 [ASAL(mono-iodo)-Pro-Hyp-Gly-Ala-Gly-NH2 (Compound 32)], for which the IC50 in experiment [3] was 0.5 nM.

B1: H-Gly-Pro-Hyp-Gly-Ala-Gly-OH (AAP, antiarrhythmic peptide) (peptide)
chain: H-GP[Hyp]GAG-OH
SMILES: C[C@H](NC(=O)CNC(=O)[C@@H]1C[C@@H](O)CN1C(=O)[C@@H]1CCCN1C(=O)CN)C(=O)NCC(=O)O
In experiment [1], B1 displayed an Inhibition of forskoline stimulated cAMP formation in CHO cells, EC50 of 53 nM. The half-maximal inhibitory concentration (IC50) in experiment [3] was determined as 0.8 nM; in experiment [4] it was 1.2 nM.
